Results taken from patent publication US20140073518A1.
Read-outs that look alike come from different tables or passages of the source. Values belong to the binder of their own block, whether it stands above or below them. Ends that are not written are not given here.

Tests used:
[1] = target: integrins on PC3 cells (adhesion to vitronectin); experiment: cell-based or functional assay
[2] = target: human umbilical vein endothelial cells (HUVECs), which express medium levels of the αvβ3, αvβ5 integrins, the Met receptor, and a high level of the α5β1 integrin; experiment: HUVEC cell binding assay
[3] = target: integrins on PC3 cells (adhesion to vitronectin); experiment: cell-based or functional assay; remark: listed apart in the source
[4] = target: integrins on PC3 cells (adhesion to vitronectin)

B1: AgRP7A-Aras4 fusion protein (soluble, FLAG and His tagged) (designed binder)
chain: DYKDDDDKPRGCVRLHESCLGQQVPCCDPAATCYCSGRGDNDLVCYCRYAEGQGKRRNTIHEFKKSAKTTLIKIDPALRIKTEKANTADQCANRCTRSKGLPFTCKAFVFDKARKRCLWFPFNSMSSGVKKEFGHEFDLYENKAYIRDCIIGRGRNYRGTVSITKSGIKCQPWSAMIPHEHSFLPSSYRGEDLRENYCRNPRGEEGGPWCYTSDPEVRYEVCDIPQCSEVETRHHHHHH
Half-maximal inhibitor concentration, inhibition of PC3 cell adhesion to human vitronectin [1]: 20 to 40 nM

B2: AgRp7A-M2.2(D127A) fusion protein (designed binder)
chain: DYKDDDDKPRGCVRLHESCLGQQVPCCDPAATCYCSGRGDNDLVCYCRYAEGQRKRRNTIHEFKKSAKTTLIKIDPALKIKTEKVNTADQCANRCTRNKGLPFTCKAFVFDKARKRCLWFPFNSMSSGVKKEFGHEFDLYENKDYIRACIIGNGRSYRGTVSITKSGIKCQPWSSMIPHEHSFLPSSYRGEDLRENYCRNPRGEEGGPWCFTSDPEVRYEVCDIPQCSEVETRHHHHHH
Kd [2]: 9.4 nM

B3: AgRP mutant 7A (designed binder)
chain: GCVRLHESCLGQQVPCCDPAATCYCSGRGDNDLVCYCR
modifications: ends and bridges not checked; also: four disulfide bonds, pairings not given here
Half-maximal inhibitor concentration, inhibition of PC3 cell adhesion to human vitronectin [1]: 20 to 40 nM

B5: EETI2.5F-Aras4 fusion protein (designed binder)
chain: DYKDDDDKPRGCPRPRGDNPPLTCSQDSDCLAGCVCGPNGFCGYAEGQGKRRNTIHEFKKSAKTTLIKIDPALRIKTEKANTADQCANRCTRSKGLPFTCKAFVFDKARKRCLWFPFNSMSSGVKKEFGHEFDLYENKAYIRDCIIGRGRNYRGTVSITKSGIKCQPWSAMIPHEHSFLPSSYRGEDLRENYCRNPRGEEGGPWCYTSDPEVRYEVCDIPQCSEVETRHHHHHH
Half-maximal inhibitor concentration, inhibition of PC3 cell adhesion to human vitronectin [1]: 20 to 40 nM

The remaining lines, values ahead:

Half-maximal inhibitor concentration, inhibition of PC3 cell adhesion to human vitronectin [3]: 20 to 40 nM
B4: EETI-II mutant 2.5F (designed binder)
chain: GCPRPRGDNPPLTCKQDSDCLAGCVCGPNGFCG

Kd [2]: 4.7 nM
B6: EETI2.5F-M2.2(D127A) fusion protein (designed binder)
chain: DYKDDDDKPRGCPRPRGDNPPLTCSQDSDCLAGCVCGPNGFCGYAEGQRKRRNTIHEFKKSAKTTLIKIDPALKIKTEKVNTADQCANRCTRNKGLPFTCKAFVFDKARKRCLWFPFNSMSSGVKKEFGHEFDLYENKDYIRACIIGNGRSYRGTVSITKSGIKCQPWSSMIPHEHSFLPSSYRGEDLRENYCRNPRGEEGGPWCFTSDPEVRYEVCDIPQCSEVETRHHHHHH

IC50 (read off the curve), PC3 cell adhesion to vitronectin [4]: 10 nM
B7: knottin 2.5F-Fc (EETI 2.5F fused to the Fc domain of mouse Ig2a) (Fc fusion)
chain: GCPRPRGDNPPLTCKQDSDCLAGCVCGPNGFCGEPRGPTIKPCPPCKCPAPNLLGGPSVFIFPPKIKDVLMISLSPIVTCVVVDVSEDDPDVQISWFVNNVEVHTAQTQTHREDYNSTLRVVSALPIQHQDWMSGKEFKCKVNNKDLPAPIERTISKPKGSVRAPQVYVLPPPEEEMTKKQVTLTCMVTDFMPEDIYVEWTNNGKTELNYKNTEPVLDSDGSYFMYSKLRVEKKNWVERNSYSCSVVHEGLHNHHTTKSFSRTPGK

IC50 (read off the curve), PC3 cell adhesion to vitronectin [4]: 10 nM
B8: knottin 2.5D-Fc (EETI 2.5D fused to the Fc domain of mouse Ig2a) (Fc fusion)
chain: GCPQGRGDWAPTSCKQDSDCRAGCVCGPNGFCGEPRGPTIKPCPPCKCPAPNLLGGPSVFIFPPKIKDVLMISLSPIVTCVVVDVSEDDPDVQISWFVNNVEVHTAQTQTHREDYNSTLRVVSALPIQHQDWMSGKEFKCKVNNKDLPAPIERTISKPKGSVRAPQVYVLPPPEEEMTKKQVTLTCMVTDFMPEDIYVEWTNNGKTELNYKNTEPVLDSDGSYFMYSKLRVEKKNWVERNSYSCSVVHEGLHNHHTTKSFSRTPGK
